Experimental data from patent US20030148463A1 (published 2003).
Each block holds one binder with its values, some of them ahead of it. Ends that are not written are not given here. Pep Spots Membrane = cellulose membrane (Jerini Biotools) to which the peptides are covalently attached at their C-termini as individual spots

Columns and labels:
[1] = biological target: T1, recombinant soluble human 17-1A-antigen (human, UniProt P16422 24-265); experiment: SPR (BIACORE 2000), s17-1A immobilized on CM5 chip, 1. set
T1 construct: extracellular domain; also called s17-1A; soluble 17-1A-antigen
T1 sequence (looked up): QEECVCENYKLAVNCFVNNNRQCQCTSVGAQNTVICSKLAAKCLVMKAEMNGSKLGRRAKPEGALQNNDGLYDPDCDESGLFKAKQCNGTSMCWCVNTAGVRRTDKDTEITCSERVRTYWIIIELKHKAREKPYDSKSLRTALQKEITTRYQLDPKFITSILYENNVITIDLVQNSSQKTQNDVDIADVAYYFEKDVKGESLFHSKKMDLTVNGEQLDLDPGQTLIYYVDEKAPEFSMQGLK
Experimental: Surface plasmon resonance measurement was performed using the BIACORE 2000 device (Biacore AB, Freiburg, Freiburg, Germany). Immobilization of recombinant soluble 17-1A-antigen in each flow cell and analysis of the interaction was carried out with an automatic method in BIACORE 2000. The antigen was covalently coupled to sensor chip CM5 via primary amine groups. After activation of the carboxylated dextran matrix of CM5 sensor chip with a single injection of 80 μl of 0.1 M N-hydroxisuccinimide/0.4 M N-ethyl-N′-(3-dimethylaminopropyl)-carbodiimide (NHS/EDC9) through all four flow cells, flow cells 1,2,3 and 4 were successively included ito the flow path during injection of s17-1A-antigen (60 μg/ml in 10 mM sodium acetate, pH 4.7). Different contact times of 17-1A to the activated surface lead to approximately 2500 response units (RU9 in flow cell 1, […] in flow cell 2, 780 RU in flow cell 3 and 290 RU in flow cell 4). Excess activated esters were blocked by injection of 85 μl 1 M ethanolamine pH 5 over all four flow cells. Binding experiments were performed at 25° C. in buffer of pH 7.4 containing 10 mM Hepes, 150 mM NaCl, 3 mM EDTA and 0.005% surfactant P20. The binding kinetics of antibodies to immobilized recombinant 17-1A were determined by injecting antibody concentrations ranging from 0.5 to 2 μM. The sensor chip was regenerated between each run with 100 mM Glycin, 500 mM NaCl, 0.005% Tween pH3. The association and dissociation rate constants, Kon and Koff were analysed using BIA-evaluation software from Biacore AB as described (Karlsson, (1991) J Immunol Meth 145: 229-240). Two sets of affinity determinations were carried out (1.set: M79, H79, D7.2, Panorex; 2. set: Panorex, HD70); the murine Panorex was also included in set 2 as internal reference.

[2] = biological target: T2, 17-1A peptide 11 (human, cysteine pairing not given here); experiment: peptide spot membrane, electrotransfer, anti-human secondary antibody, chemoluminescence
T2 construct: also called peptide spot 11
T2 peptide: NCFVNNNRQCQCT-{Pep Spots Membrane}
Source text: (§1) Due to a higher degree of crossreactivity of the secondary HRP-conjugated anti-human immunoglobulin antibody with several peptide spots, bound human antibodies H79 and HD70 were transfered from the Pep Spots Membrane to a blotting membrane, respectively, by means of electrotransfer and subsequently detected by said anti human secondary antibody and chemoluminescence. Specific binding of human antibody H79 could be detected mainly at peptide spots 8, 11, 13, 14, 59-60, 77 and 79; however, no binding was detectable in case of human antibody HD70.
(§2) The PepSpots Membrane with the synthesized peptides was shaken for ten minutes in methanol and then washed three times for ten minutes in TBS-buffer pH8. The membrane was then blocked in casein based blocking solution, containing 0.05 g/ml sucrose for one hour and then once shaken in TBS pH8/0.05%Tween 20 (TBS-T).
(§3) Each of the anti-17-1A antibodies was incubated at room temperature together with the membrane for three hours in blocking solution (1 μg antibody/ml). After three washes in TBS-T for ten minutes each, the horse radish peroxidase (HRP)-conjugated secondary antibody (anti mouse/anti human; 1 μg/ml blocking solution) was incubated for two hours at room temperature together with the membrane. Then the membrane was washed for three times in TBS-T for ten minutes each. Detection of bound antibodies was performed directly on the Pep Spots Membrane in case of M79 according to the protocol of the chemoluminescence kit manufacturer (Boehringer). The blot was regenerated after three washes with TBS-T (10 min.) in a solution containing 50 mM Tris-HCl pH 6.7, 100 mM 2-Mercaptoethanol and 2% (w/v) SDS for 30 min at 50° C. and subsequently reused for epitope mapping of the next antibody. Due to the higher degree of unspecific binding of the anti-human immunoglobulin secondary antibody to the polypeptide-spots on the membrane, a fractionated electrotransfer to a second blotting-membrane followed by detection with the anti-human secondary antibody was carried out in case of HD70 and H79 according to Rüdiger, EMBO 16 (1997) 1501-1507. Incubation with the secondary antibody and antibody detection on the blots was performed as described above.

[3] = biological target: T3, 17-1A peptide 59 (human); experiment: as above
T3 construct: also called peptide spot 59
T3 peptide: ITCSERVRTYWII-{Pep Spots Membrane}
Source text: as §1, §2, §3

[4] = biological target: T4, 17-1A peptide 8 (human); experiment: as above
T4 construct: also called peptide spot 8
T4 peptide: NYKLAVNCFVNNN-{Pep Spots Membrane}
Source text: as §1, §2, §3

[5] = biological target: T5, 17-1A peptide 13 (human, cysteine pairing not given here); experiment: as above
T5 construct: also called peptide spot 13
T5 peptide: NNNRQCQCTSVGA-{Pep Spots Membrane}
Source text: as §1, §2, §3

[6] = biological target: T6, 17-1A peptide 60 (human); experiment: as above
T6 construct: also called peptide spot 60
T6 peptide: CSERVRTYWIIIE-{Pep Spots Membrane}
Source text: as §1, §2, §3

[7] = biological target: T7, 17-1A peptide 79 (human); experiment: as above
T7 construct: also called peptide spot 79
T7 peptide: RYQLDPKFITSIL-{Pep Spots Membrane}
Source text: as §1, §2, §3

[8] = biological target: T8, 17-1A peptide 14 (human, cysteine pairing not given here); experiment: as above
T8 construct: also called peptide spot 14
T8 peptide: NRQCQCTSVGAQN-{Pep Spots Membrane}
Source text: as §1, §2, §3

[9] = biological target: T1, recombinant soluble human 17-1A-antigen; experiment: ELISA of periplasma Fab preparations on immobilized s17-1A
Experimental: As previously mentioned in example I, E. coli XL1 Blue transformed with pComb3H containing one light and the Fd-segment of one heavy chain produce soluble Fab in sufficient amounts after excision of the gene III fragment and induction with IPTG. The heavy chain Fd-segment and the light chain are exported into the periplasma where they assemble and form functional Fab-fragments. For better periplasma preparations the cells were grown in SB-medium supplemented with 20 mM MgCl₂ and are redissolved in PBS after harvesting. By four rounds of freezing at −70° C. and thawing at 37° C., the outer membrane of the bacteria was destroyed by temperature shock and the soluble periplasmatic proteins including the Fab fragments were released into the supernatant. After elimination of intact cells and cell-debris by centrifugation, the supernatants containing the Fab-antibody-fragments were collected and used for further examination. […]
Detection of k8-D4.5 and k5.1-D4.5-Fab-fragments bound to immobilized s17-1A anigen was carried out using a polyclonal biotinylated anti-human-kappa light chain antibody (1 μg/ml PBS) detected with horse raddish conjugated Avidine (1 μg/ml PBS). The signal was developed by adding a substrate solution, containing 2,2′Azino-bis(3-Ethylbenz-Thiazoline-6-Sulfonic Acid) and Na-perborate and detected at a wavelength of 405 nm.

[10] = biological target: T9, human 17-1A-antigen on cells (Kato gastric cancer cells, 17-1A-transfected CHO cells, colon tissue) (human, UniProt P16422 24-314); experiment: flow cytometry on Kato cells and 17-1A-transfected CHO cells, periplasma preparation
T9 construct: whole, on cells; also called transmembrane 17-1A; CHO/17-1A
T9 sequence (looked up): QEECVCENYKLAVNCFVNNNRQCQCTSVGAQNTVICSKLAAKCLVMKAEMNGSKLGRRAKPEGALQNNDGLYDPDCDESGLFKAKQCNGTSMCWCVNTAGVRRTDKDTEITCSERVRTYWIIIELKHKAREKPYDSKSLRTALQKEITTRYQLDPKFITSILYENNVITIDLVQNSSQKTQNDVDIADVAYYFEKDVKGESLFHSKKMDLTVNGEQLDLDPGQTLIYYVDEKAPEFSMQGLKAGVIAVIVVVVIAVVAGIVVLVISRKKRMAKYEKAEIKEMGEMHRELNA
Source text: The test for binding of the two 17-1A positive human Fab-fragments (k8-D4.5-Fab and k5.1-D4.5-Fab) on Kato-cells (17-1A expressing gastric cancer cell-line), 17-1A transfected CHO-cells (CHO/17-1A) and non-transfected CHO-cells was again carried out with the periplasma preparations. CHO transfected cell-lines were generated by subcloning of a DNA-fragment encoding the complete amino acid sequence of the 17-1A-antigen also known as GA733-2 (Szala, Proc. Natl. Acad. Sci. U.S.A. 87 (1990), 3542-3546), into the eucaryotic expression vector pEF-DHFR (Mack, , Proc. Natl. Acad. Sci. U.S.A. 92 (1995) 7021-7025) according to standard procedures (Sambrook, Molecular Cloning; A Laboratory Manual, Second Edition, Cold Spring Harbour Laboratory Press, Cold Spring Harbour, N.Y. (1989)). The resulting plasmid was linearized with NdeI and transfected into DHFR-deficient CHO-cells for stable expression. The expression of transmembrane 17-1A was increased by stepwise gene amplification induced by subsequent addition of increasing concentrations of the DHFR-inhibitor Methotrexat (MTX) to a final concentration of 500 nM, with the concentration steps in between being 20 nM and 100 nM (Kaufmann, Methods Enzymol. 185 (1990), 537-566). […] Labeled cells were then analyzed by flow cytometry.

[11] = biological target: recombinant soluble human 17-1A-antigen (human) (UniProt P16422); experiment: SPR (BIACORE 2000), s17-1A immobilized on CM5 chip, 1. set
[12] = biological target: recombinant soluble human 17-1A-antigen (human) (UniProt P16422); experiment: SPR (BIACORE 2000), s17-1A immobilized on CM5 chip, 2. set (internal reference)

Kd [1]: 340 nM
koff [1]: 0.0072 s⁻¹
kon [1]: 21000 M⁻¹ s⁻¹
binding result [2]: binds
binding result [3]: binds
binding result [4]: binds
binding result [5]: binds
binding result [6]: binds
binding result [7]: binds
binding result [8]: binds
B1: H79-huIgG1 (VD4.5huIgG1-k8) (antibody, V domains shown)
VH: EVQLLESGGGVVQPGRSLRLSCAASGFTFSSYGMHWVRQAPGKGLEWVAVISYDGSNKYYADSVKGRFTISRDNSKNTLYLQMNSLRAEDTAVYYCAKDMGWGSGWRPYYYYGMDVWGQGTTVTVSS
VL: ELQMTQSPSSLSASVGDRVTITCRTSQSISSYLNWYQQKPGQPPKLLIYWASTRESGVPDRFSGSGSGTDFTLTISSLQPEDSATYYCQQSYDIPYTFGQGTKLEIK
notes: Complete antibody produced in CHO cells; also called H79 human IgG1; human H79

binding result [9]: binds
binding result [10]: binds
B2: k5.1-D4.5-Fab (Fab, V domains shown)
VH: EVQLLESGGGVVQPGRSLRLSCAASGFTFSSYGMHWVRQAPGKGLEWVAVISYDGSNKYYADSVKGRFTISRDNSKNTLYLQMNSLRAEDTAVYYCAKDMGWGSGWRPYYYYGMDVWGQGTTVTVSS
VL: ELQMTQSPSSLSASVGDRVTITCRASQSISSYLNWYQQKPGQPPKLLIYWASTRESGVPDRFSGSESGTNYTLTISSLQPEDFATYFCQQSDSLPITFGQGTRLDIQ
notes: Soluble Fab tested as an E. coli periplasma preparation

Kd [11]: 200 nM
koff [11]: 0.022 s⁻¹
kon [11]: 110000 M⁻¹ s⁻¹
Kd [12]: 270 nM
koff [12]: 0.027 s⁻¹
kon [12]: 100000 M⁻¹ s⁻¹
B3: Panorex (antibody, INN chains, looked up, V domains shown)
VH: QVQLQQSGAELVRPGTSVKVSCKASGYAFTNYLIEWVKQRPGQGLEWIGVINPGSGGTNYNEKFKGKATLTADKSSSTAYMQLSSLTSDDSAVYFCARDGPWFAYWGQGTLVTVSA
VL: NIVMTQSPKSMSMSVGERVTLTCKASENVVTYVSWYQQKPEQSPKLLIYGASNRYTGVPDRFTGSGSATDFTLTISSVQAEDLADYHCGQGYSYPYTFGGGTKLEIK
